What was measured:
[1] = target: TDP-43 M323K (LCDmut) M323K (mouse) (UniProt Q921F2); assay: EMSA; set-up: unit not given beside the values; conditions: 5% acrylamide gel, protein 0.25-2 ug with 32P RNA in unspecified binding buffer, salt, pH and temperature not given
[2] = target: TDP-43 WT (mouse) (UniProt Q921F2); assay: EMSA; set-up: unit not given beside the values; conditions: 5% acrylamide gel, protein 0.25-2 ug with 32P RNA in unspecified binding buffer, salt, pH and temperature not given

UGUGUGUGUGUG [(UG)6 RNA]
Kd [1]: 32200
Kd [2]: 27600
